B1: MSMEG_2850 (Mycolicibacterium smegmatis MC2 155) (protein)
chain: MTEAIDWDQMNNQVIKEFRETGGKAGGLFEGSPLVLVHHTGAKSGKQRIAPLVPLLDGDRIYIFGSKGGADSHPDWYHNLVANPDTVVELGTETFPVKARVLTGAERDEIYAKQVAVAPQFGDYQRKTTRVIPVVELQRV
B2: MSMEG_2027 (Mycolicibacterium smegmatis MC2 155) (protein)
chain: MTDAELSPTDWVREQTERILEQGTTDGVHVLDRPIVLFTTTGAKSGKKRYVPLMRVEENGKYAMVASKGGDPKHPSWYFNVKANPTVSVQDGDKVLPDRTARELEGEEREHWWKLAVEAYPPYAEYQTKTDRLIPVFIVE

What was measured:
Test in all cases: purified protein
[1] = substrate: CC1=CC(=O)CCC1; details: co-substrate F420H2, apparent value
[2] = substrate: CC1=CC(=O)CC(C)(C)C1=O; details: co-substrate F420H2; apparent value; fit with substrate inhibition
[3] = substrate: CC1=CCCCC1=O; details: co-substrate F420H2; apparent value
[4] = substrate: C=C(C)[C@@H]1CC=C(C)C(=O)C1; details: co-substrate F420H2; apparent value
[5] = substrate: CC1=CC(=O)CC1; details: co-substrate F420H2; apparent value
[6] = substrate: CC1=CCCC1=O; details: co-substrate F420H2; apparent value
[7] = substrate: C=C(C)[C@H]1CC=C(C)C(=O)C1; details: co-substrate F420H2; apparent value
[8] = substrate: CC1(C)[C@H]2CC=C(C=O)[C@@H]1C2; details: co-substrate F420H2; apparent value

Protein	Km ([1]; fit with substrate inhibition) [µM]	kcat ([1]; fit with substrate inhibition) [s⁻¹]	Km [2] [µM]	kcat [2] [s⁻¹]	Km [3] [µM]	kcat [3] [s⁻¹]	Km [4] [µM]	kcat [4] [s⁻¹]	Km [5] [µM]	kcat [5] [s⁻¹]	Km [6] [µM]	kcat [6] [s⁻¹]	Km [7] [µM]	kcat [7] [s⁻¹]	Km [8] [µM]	kcat [8] [s⁻¹]	Km [1] [µM]	kcat [1] [s⁻¹]
B1	6730 ± 6840	4.02 ± 3.30	100 ± 8	1.35 ± 0.028	9180 ± 2220	1.59 ± 0.23	1620 ± 180	0.08 ± 0.003	4300 ± 740	0.10 ± 0.008	7670 ± 3210	0.16 ± 0.04	2070 ± 390	0.05 ± 0.004	580 ± 70	0.16 ± 0.005	–	–
B2	–	–	3880 ± 680	0.39 ± 0.05	2560 ± 480	0.62 ± 0.05	1290 ± 320	0.11 ± 0.008	120 ± 50	0.01 ± 0.001	1000 ± 130	0.55 ± 0.02	1300 ± 280	0.09 ± 0.006	310 ± 30	0.74 ± 0.017	4290 ± 3460	1.10 ± 0.41
